We go through five molecules from publication PMC11041675.

Among the targets are nsp7;nsp8 (SARS-CoV-2;SARS-CoV-2, UniProt P0DTD1;P0DTD1 3860-3942;3943-4140, |); nsp7 (SARS-CoV-2, UniProt P0DTD1 3860-3942); nsp8 (SARS-CoV-2, UniProt P0DTD1 3943-4140).
Assay in all cases: EMSA

B1: rd85 (structured_RNA)
RNA: GGGAAUAUACUAAUAUUGGUUGAGUUGUCCAAGCUCUAAUUGUGUCCUUUAGCUGUACGGAUUAUAAAAGUAAUAGGGAUGUGUU
B1 displayed a Kd with nsp7;nsp8 of 3.7 µM.

B2: SLP4 (structured_RNA)
RNA: GGGAUUCUCGUAACUACAUAGCACAAGUAGAUGUAGUUAACUUUAAUCUCACAGCAAUGUGAUUUUAAUAGCUUCUUAGGAGAAU
With B2, the binding result in the data set with nsp7 was “no binding”; in the data set with nsp8, “binds”. In addition, the Kd in the data set with nsp7;nsp8 was found to be 2.4 µM.

B3: PKP4 (structured_RNA)
RNA: GGGCUUGUGCAGAAUGAAUUCUCGUAACUACAUAGCACAAGUAGAUGUAGUUAACUUUAAUCUCACAGCAAUGUGAUUUUAAUAGCUUCUUAGGAGAAU
On to B3, for which the binding result in the data set with nsp7 was “no binding”; with nsp8 it was “binds”. This molecule returned a Kd with nsp7;nsp8 of 2.6 µM.

B4: PK (structured_RNA)
RNA: GGGUCUUGUGCAGAAUGAAUUCUCGUAACUACAUAGCACAAGUAGAUGUAGUUA
Consider B4, for which the binding result in the data set with nsp7 is given as “no binding”; in the data set with nsp8, “binds”. For the same molecule, in the data set with nsp7;nsp8, the equilibrium dissociation constant (Kd) was 5.3 µM.

B5: SL (structured_RNA)
RNA: GGAUUCUCGUAACUACAUAGCACAAGUAGAUGUAGUUACUUAGGAGAAU
In the case of B5, the binding result with nsp7 is “no binding”; with nsp8, “binds”. In the data set with nsp7;nsp8, this molecule had a Kd of 5.7 µM.
